Assay results as given in patent publication CN116355099A (BEIJING KENUO XINCHENG TECH CO LTD, dated 2023).

T1: 人OX40胞外区重组蛋白(OX40-His) (human, UniProt P43489 29-214)
T1 construct: extracellular domain; also called 人OX40重组蛋白(10481-H08H，北京义翘神州); 人OX40胞外区融合蛋白; not shown: His tag
T1 sequence (looked up): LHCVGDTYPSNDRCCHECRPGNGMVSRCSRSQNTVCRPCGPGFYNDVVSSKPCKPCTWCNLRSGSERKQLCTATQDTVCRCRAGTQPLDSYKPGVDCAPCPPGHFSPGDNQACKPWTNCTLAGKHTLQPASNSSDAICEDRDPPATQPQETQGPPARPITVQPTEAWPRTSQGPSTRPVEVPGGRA

T2: human OX40 on HT1080-hOX40 cells (human, UniProt P43489 29-277)
T2 sequence (looked up): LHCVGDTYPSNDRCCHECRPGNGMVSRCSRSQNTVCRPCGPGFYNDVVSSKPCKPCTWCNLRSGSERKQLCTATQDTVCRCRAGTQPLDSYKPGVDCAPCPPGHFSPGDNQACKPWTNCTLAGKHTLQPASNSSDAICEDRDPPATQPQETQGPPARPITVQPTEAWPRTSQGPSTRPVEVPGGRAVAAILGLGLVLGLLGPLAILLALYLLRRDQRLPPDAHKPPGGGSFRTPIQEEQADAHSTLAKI


Tests used:
人OX40胞外区重组蛋白(OX40-His) [1] = molecular target: T1, 人OX40胞外区重组蛋白(OX40-His); experiment: ELISA, OX40-His coated
[2] = molecular target: T2, human OX40 on HT1080-hOX40 cells; experiment: cell-based or functional assay
[3] = molecular target: PD-L1 on CHO-PD-L1-CD3L cells (UniProt Q9NZQ7 19-290, limits assumed); experiment: cell-based or functional assay
Sequence of PD-L1 on CHO-PD-L1-CD3L cells (Q9NZQ7 19-290 limits assumed): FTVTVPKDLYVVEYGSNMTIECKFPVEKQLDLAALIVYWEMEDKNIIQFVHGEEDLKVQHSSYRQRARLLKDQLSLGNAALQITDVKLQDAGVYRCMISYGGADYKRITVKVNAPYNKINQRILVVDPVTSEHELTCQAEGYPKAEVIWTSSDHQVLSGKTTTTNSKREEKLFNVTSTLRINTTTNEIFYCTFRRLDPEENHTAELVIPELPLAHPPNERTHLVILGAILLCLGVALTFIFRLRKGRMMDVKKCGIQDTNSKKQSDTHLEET

PD-L1-mFc = molecular target: T3, PD-L1-mFc (UniProt Q9NZQ7 19-238, limits assumed); experiment: competition ELISA: PD-1-hFc coated, PD-L1-mFc 1 ug/ml in solution, blocking of PD-L1 binding to PD-1
T3 construct: also called 重组PD-L1; not shown: mouse Fc (mFc)
T3 sequence (Q9NZQ7 19-238 limits assumed): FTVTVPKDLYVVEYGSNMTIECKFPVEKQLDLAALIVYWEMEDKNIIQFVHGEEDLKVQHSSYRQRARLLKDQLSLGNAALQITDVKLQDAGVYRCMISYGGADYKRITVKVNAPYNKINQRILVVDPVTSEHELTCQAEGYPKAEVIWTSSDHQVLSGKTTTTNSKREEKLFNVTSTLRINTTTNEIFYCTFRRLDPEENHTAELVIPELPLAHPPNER

人OX40胞外区重组蛋白(OX40-His) [4] = molecular target: T1, 人OX40胞外区重组蛋白(OX40-His); experiment: BLI (Octet QKe), antibody captured on AHC probe, antigen in solution, 1:1 Langmuir fit
人PD-L1胞外区重组蛋白(PD-L1-His) [5] = molecular target: T4, 人PD-L1胞外区重组蛋白(PD-L1-His) (human, UniProt Q9NZQ7 19-238); experiment: as above
T4 construct: extracellular domain; also called 人PD-L1重组蛋白(10084-H08H，北京义翘神州); 人PD-L1胞外区融合蛋白; not shown: His tag
T4 sequence (Q9NZQ7 19-238): as the sequence (Q9NZQ7 19-238 limits assumed) above

人PD-L1胞外区重组蛋白(PD-L1-His) [6] = molecular target: T4, 人PD-L1胞外区重组蛋白(PD-L1-His); experiment: ELISA, PD-L1-His coated at 1 ug/mL, anti-human Fc-HRP detection
人OX40胞外区重组蛋白(OX40-His) [7] = molecular target: T1, 人OX40胞外区重组蛋白(OX40-His); experiment: ELISA, OX40-His coated at 1 ug/mL, anti-human Fc-HRP detection

| binding result (人OX40胞外区重组蛋白(OX40-His) [1]) | 刺激HT1080-huOX40细胞表达IL8活性, EC50 [2] [µg/mL] | 对PD-1/PD-L1信号通路的阻断活性 (Jurkat-PD1-NFAT / CHO-PD-L1-CD3L luciferase reporter), IC50 [3] [nM] | IC50 (PD-L1-mFc) [nM] | Kd (人OX40胞外区重组蛋白(OX40-His) [4]) [nM] | Kd (人PD-L1胞外区重组蛋白(PD-L1-His) [5]) [nM] | EC50 (人PD-L1胞外区重组蛋白(PD-L1-His) [6]) [nM] | EC50 (人OX40胞外区重组蛋白(OX40-His) [7]) [nM] | Binder |
| --- | --- | --- | --- | --- | --- | --- | --- | --- |
| binds | – | – | – | – | – | – | – | 抗OX40人源化抗体hz25A7 (antibody, V domains shown, Parental humanised anti-OX40 monoclonal antibody (from CN202010063141.3); also called 单抗hz25A7) VH: EVQLVESGGGLVQPGRSLRLSCAASGFTFSSHDMSWVRQAPGKGLELVAAINSEGGRIYYPDTMERRFTISRDNSKNTLYLQMNSLRAEDTAVYYCARHYDNYAWFAYWGQGTLVTVSS VL: DIQMTQSPSSLSASVGDRVTITCRASKSVSTSGSSYIHWYQQKPGKAPKLLIYLASNLESGVPSRFSGSGSGTDFTLTISSLQPEDFATYYCQHSRELPLTFGGGTKVEIK |
| binds | – | – | – | – | – | – | – | 抗OX40人源化抗体hz27G12 (antibody, V domains shown, Parental humanised anti-OX40 monoclonal antibody (from CN202010063141.3); also called 单抗hz27G12) VH: EVQLVQSGAEVKKPGASVKVSCKASGYTFTEYIIHWVRQAPGQGLEWIGWFYPESGSIKYNEKFKDRVTITRDTSTSTVYMELSSLRSEDTAVYYCARHEDPITFAYWGQGTLVTVSS VL: EIVMTQSPATLSVSPGERATLSCKASQSVDYEGDSYMNWYQQKPGQAPKLLIYAASNLESGIPARFSGSGSGTDFTLTISSLEPEDFATYYCQQSNEDPYTFGGGTKVEIK |
| – | 0.247 | 4.75 | 6.84 | 5 | 1 | 0.563 | 0.0877 | hz25A7-hzF2 (bispecific antibody, human IgG1, kappa, Symmetric four-chain molecule (two of peptide chain 1, two of peptide chain 2); expressed in HEK293, purified on Protein A; also called 抗PD-L1/OX40双特异性抗体 hz25A7-hzF2; OX40/PD-L1双特异性抗体) heavy: not shown light: DIQMTQSPSSLSASVGDRVTITCRASKSVSTSGSSYIHWYQQKPGKAPKLLIYLASNLESGVPSRFSGSGSGTDFTLTISSLQPEDFATYYCQHSRELPLTFGGGTKVEIKRTVAAPSVFIFPPSDEQLKSGTASVVCLLNNFYPREAKVQWKVDNALQSGNSQESVTEQDSKDSTYSLSSTLTLSKADYEKHKVYACEVTHQGLSSPVTKSFNRGEC |
| – | 2.28 | 3.38 | 7.12 | 8 | 1.3 | 0.651 | 0.0781 | hz27G12-hzF2 (bispecific antibody, human IgG1, kappa, Symmetric four-chain molecule (two of peptide chain 1, two of peptide chain 2); expressed in HEK293, purified on Protein A; also called 抗PD-L1/OX40双特异性抗体 hz27G12-hzF2; OX40/PD-L1双特异性抗体) heavy: not shown light: EIVMTQSPATLSVSPGERATLSCKASQSVDYEGDSYMNWYQQKPGQAPKLLIYAASNLESGIPARFSGSGSGTDFTLTISSLEPEDFATYYCQQSNEDPYTFGGGTKVEIKRTVAAPSVFIFPPSDEQLKSGTASVVCLLNNFYPREAKVQWKVDNALQSGNSQESVTEQDSKDSTYSLSSTLTLSKADYEKHKVYACEVTHQGLSSPVTKSFNRGEC |
